In US20250313644A1 (FUTUREGEN BIOPHARMACEUTICAL BEIJING, published 2025):

Molecular target: T1, human TL1A (HuTL1A) (human, UniProt O95150 57-251, limits assumed, biotin-labelled in some assays (site not stated))
T1 construct: Expressed in EXPI-293 cells and purified by Ni-NTA (His-tag); Described as a trimeric antigen; also called TL1A antigen; WT
T1 sequence: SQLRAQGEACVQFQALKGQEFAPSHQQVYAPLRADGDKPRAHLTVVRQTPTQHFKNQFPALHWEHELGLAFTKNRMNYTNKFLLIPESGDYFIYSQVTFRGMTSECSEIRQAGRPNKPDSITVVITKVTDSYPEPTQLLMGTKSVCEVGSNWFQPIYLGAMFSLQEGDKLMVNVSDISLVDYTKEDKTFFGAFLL
Experiment: ELISA: biotin-HuTL1A on streptavidin plate, antibody diluted at pH 5.8, HRP-anti-human Fc, OD450
Procedure: Corresponding antibodies were added to specific wells, and the antibodies were diluted with sodium dihydrogen phosphate-citrate buffer at pH 7.4, pH 6.0, pH 5.8, or pH 5.6. Binding assay was carried out at room temperature for 30 minutes. After the incubation, the excess antibodies were removed and the wells were washed by PBST. HRP-anti-Human Fc (Sino Biological) was then added into each well and incubated for 30 minutes to detect the bound antibody. The substrate TMB was finally added to develop color for 5-10 minutes. The color development reaction was terminated with 1M sulfuric acid. OD450 nm was recorded on a microplate reader, and the data were processed and fitted by 4 parameter logistic regression.

B1: M701-4007 (antibody, human IgG1, kappa, L234A L235A, V domains shown)
VH: ELQLQESGPGLVKPSETLSLTCAVSGVSFSDYHWAWIRQPPGKGLEWIGDINHRGHTNYNPSLKSRVTVSIDTSKNQFSLKLSSVTAADTAVYFCARDFPNFIFDFWGQGTLVTVSS
VL: DIQLTQSPGTLSLSPGERATLSCRASQSVSTYLAWYQQKPGQAPRLLIYGASKRATGIPDRFSGSGSGTDFTLTISRLEPEDFAVYYCQQYGDSPLTFGQGTKVEIKR
notes: Fc-engineered IgG1
For B1, which “EC50 (read off the curve)” value is on record?
Its value is ~700 pM.
